These results are taken from publication PMC4154765, “Crystal Structure of the Mineralocorticoid Receptor DNA Binding Domain in Complex with DNA” (PLoS ONE, 2014).

The target in data set [1] is GR DBD (UniProt P04150 417-506). The data set can be described thus: fluorescence polarization; 10 nM DNA; slight positive cooperativity; endpoint called affinity; FP: 100 mM NaCl, 20 mM Tris-HCl pH 7.4, 5% glycerol, 10 nM FAM-GRE; temperature not stated. The conditions noted are these: protein: recombinant; chain copies: 2; label: 5' 6-FAM on strand 1; blunt. A general note: Polarisation of emitted light reports the rotation of a fluorescent probe.

Data set [2] deals with T1, MR DBD (human, UniProt P08235 593-671). Described as above. The conditions noted are these: protein: recombinant; tags: 6xHis (pMCSG7 vector); chain copies: 2; label: 5' 6-FAM on strand 1; blunt.
For data set [3], the target named is T1, MR DBD. Briefly: X-ray crystallography; DBD dimer on two half sites; 2.4 A; FP: 100 mM NaCl, 20 mM Tris-HCl pH 7.4, 5% glycerol, 10 nM FAM-GRE; temperature not stated. The conditions noted are these: protein: recombinant; tags: 6xHis (pMCSG7 vector); chain copies: 2.
Data set [4] concerns the molecule itself. The data set can be described thus: crystal structure; MR DBD crystallised with a 17 base pair GRE DNA, 2:1 molar ratio of DNA to protein, protein at 3.0 mg/ml; hanging-drop vapor diffusion, 0.2 M sodium malonate, 12% PEG 3350; the DBD dimer is seen bound to the two DNA half sites.

GR DBD, sequence (P04150 417-506): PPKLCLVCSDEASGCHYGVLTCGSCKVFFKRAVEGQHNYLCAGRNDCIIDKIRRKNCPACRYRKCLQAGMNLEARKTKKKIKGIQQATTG

B1: FAM-GRE (dsDNA)
DNA 1: CCAGAACAGAGTGTTCTGA
DNA 2: TCAGAACACTCTGTTCTGG
On to B1, for which the Kd (in general, the free concentration of one partner at which half of the binding sites on the other are occupied at equilibrium, for simple one-to-one binding) in data set [1] came out at 53 nM; in data set [2] it was 55 nM.

B2: GRE 17 bp (crystal) (dsDNA)
DNA 1: GTCTTGTCTCACAAGAC
DNA 2: GTCTTGTGAGACAAGAC
For B2, in data set [3], the binding result is “binds”.

B3: human mineralocorticoid receptor DNA binding domain (domain or fragment, UniProt P08235 593-671, looked up)
chain: STGSSRPSKICLVCGDEASGCHYGVVTCGSCKVFFKRAVEGQHNYLCAGRNDCIIDKIRRKNCPACRLQKCLQAGMNLG
notes: Cloned into pMCSG7, 'which contains a 6X-histidine tag'; Two copies of the chain form the dimer on the GRE DNA in the crystal; also called MR DBD; MR
As to B3, the binding result in data set [4] was “binds”.
